Article PMC3043165 (2011)
Where no end group is shown, it is not given here.

T1: integrin αvβ3 (Homo sapiens, UniProt P06756)
T1 chain 1: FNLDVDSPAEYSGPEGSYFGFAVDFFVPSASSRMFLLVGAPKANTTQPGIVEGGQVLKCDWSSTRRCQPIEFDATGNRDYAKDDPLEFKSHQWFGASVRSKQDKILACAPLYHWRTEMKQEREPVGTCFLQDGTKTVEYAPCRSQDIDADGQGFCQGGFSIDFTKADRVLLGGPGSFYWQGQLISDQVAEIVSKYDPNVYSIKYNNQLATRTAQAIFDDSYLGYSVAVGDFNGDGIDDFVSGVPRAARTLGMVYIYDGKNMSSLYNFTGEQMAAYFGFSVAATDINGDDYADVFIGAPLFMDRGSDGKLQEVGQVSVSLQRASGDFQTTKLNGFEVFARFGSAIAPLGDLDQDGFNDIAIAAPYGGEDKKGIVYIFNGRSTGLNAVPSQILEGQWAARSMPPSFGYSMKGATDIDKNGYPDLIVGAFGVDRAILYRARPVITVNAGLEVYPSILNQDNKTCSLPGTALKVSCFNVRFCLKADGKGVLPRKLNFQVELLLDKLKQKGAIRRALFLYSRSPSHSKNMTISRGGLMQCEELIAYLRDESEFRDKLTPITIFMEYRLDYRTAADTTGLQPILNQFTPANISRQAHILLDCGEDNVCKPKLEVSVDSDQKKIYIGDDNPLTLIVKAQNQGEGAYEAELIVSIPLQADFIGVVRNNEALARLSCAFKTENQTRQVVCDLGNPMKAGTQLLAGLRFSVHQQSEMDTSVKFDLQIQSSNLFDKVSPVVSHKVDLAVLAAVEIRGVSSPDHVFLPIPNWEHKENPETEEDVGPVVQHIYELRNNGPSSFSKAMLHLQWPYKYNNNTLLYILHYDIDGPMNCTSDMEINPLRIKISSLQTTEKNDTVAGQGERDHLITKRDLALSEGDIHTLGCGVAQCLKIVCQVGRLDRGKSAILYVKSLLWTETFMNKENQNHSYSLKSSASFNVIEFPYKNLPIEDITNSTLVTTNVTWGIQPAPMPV
T1 chain 2: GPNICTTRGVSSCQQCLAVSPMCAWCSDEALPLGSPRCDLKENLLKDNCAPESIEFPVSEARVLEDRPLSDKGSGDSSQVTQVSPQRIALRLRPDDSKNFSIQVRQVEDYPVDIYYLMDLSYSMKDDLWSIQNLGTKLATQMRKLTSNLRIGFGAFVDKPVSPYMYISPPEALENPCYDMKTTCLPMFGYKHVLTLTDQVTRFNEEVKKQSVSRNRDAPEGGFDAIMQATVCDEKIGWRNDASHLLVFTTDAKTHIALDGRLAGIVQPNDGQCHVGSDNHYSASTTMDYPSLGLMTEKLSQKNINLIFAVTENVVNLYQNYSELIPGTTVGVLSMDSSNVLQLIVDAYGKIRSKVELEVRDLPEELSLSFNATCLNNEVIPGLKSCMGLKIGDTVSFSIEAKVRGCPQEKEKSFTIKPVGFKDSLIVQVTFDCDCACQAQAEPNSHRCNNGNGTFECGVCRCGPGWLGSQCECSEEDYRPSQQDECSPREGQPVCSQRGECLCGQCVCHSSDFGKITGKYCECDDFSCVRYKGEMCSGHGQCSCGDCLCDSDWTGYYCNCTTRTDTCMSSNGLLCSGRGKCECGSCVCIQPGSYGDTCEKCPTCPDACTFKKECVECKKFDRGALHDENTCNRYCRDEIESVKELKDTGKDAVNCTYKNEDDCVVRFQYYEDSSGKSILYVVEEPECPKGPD

T2: integrin αvβ5 (Homo sapiens, UniProt P06756)
T2 chain 1: T1 chain 1
T2 chain 2: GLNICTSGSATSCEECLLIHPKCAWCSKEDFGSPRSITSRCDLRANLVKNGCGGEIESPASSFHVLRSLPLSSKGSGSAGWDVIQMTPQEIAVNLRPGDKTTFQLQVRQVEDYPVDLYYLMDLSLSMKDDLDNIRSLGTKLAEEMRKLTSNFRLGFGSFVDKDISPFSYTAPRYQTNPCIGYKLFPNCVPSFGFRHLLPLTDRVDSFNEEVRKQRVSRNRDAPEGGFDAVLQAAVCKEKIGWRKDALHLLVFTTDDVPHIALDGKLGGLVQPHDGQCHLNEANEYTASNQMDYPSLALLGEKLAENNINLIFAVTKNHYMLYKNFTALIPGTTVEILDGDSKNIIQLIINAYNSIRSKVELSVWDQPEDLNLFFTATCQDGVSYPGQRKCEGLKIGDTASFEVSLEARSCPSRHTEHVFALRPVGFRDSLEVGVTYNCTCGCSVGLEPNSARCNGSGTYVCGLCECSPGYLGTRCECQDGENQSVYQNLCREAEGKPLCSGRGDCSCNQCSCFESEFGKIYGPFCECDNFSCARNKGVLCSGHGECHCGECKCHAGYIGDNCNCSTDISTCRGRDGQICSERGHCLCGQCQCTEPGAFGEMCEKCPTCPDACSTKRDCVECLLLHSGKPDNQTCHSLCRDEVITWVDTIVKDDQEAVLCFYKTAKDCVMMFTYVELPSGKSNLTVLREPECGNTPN


Experiments:
integrin αvβ3 = target: T1, integrin αvβ3; assay: competitive solid-phase binding assay with biotinylated vitronectin
integrin αvβ5 = target: T2, integrin αvβ5; assay: as above
integrin αIIbβ3 = integrin αIIbβ3 (Homo sapiens, UniProt P08514); assay: competitive solid-phase binding assay with biotinylated fibronectin

Row | Binder | IC50 (integrin αvβ3) | IC50 (integrin αvβ5) | IC50 (integrin αIIbβ3)
1 | GRGDS (not fully specified) [GRGDS-CNP 50% (70 peptides per CNP)] | 1.08 nM | – | –
2 | GRGDS (not fully specified) [GRGDS-CNP 5% (7 peptides per CNP)] | 78.5 nM | > 1000 nM | > 1000 nM
3 | GRGDS (not fully specified) [GRGDS-CNP 20% (28 peptides per CNP)] | 5.21 nM | – | –
4 | GRGDS (not fully specified) [GRGDS-CNP 10% (14 peptides per CNP)] | 12.5 nM | – | –
